This data set deals with piggyBac transposase (PBase) (Trichoplusia ni). The experiment in a line: cell_activity.

“PB[Act-RFP] donor transposon (PBL/PBR termini)” returned an activity (% transposon single-positive founders) (mouse pronuclear co-injection with Act-PBase, 10.4% without helper, precise excision in male germline shown with Prm1-PBase (p230)) of 34.8.
With PB[K14-Tyr, Act-RFP] donor transposon, the activity (% founders with transposition) (mouse, 26/31 founders, Act-PBase) stood at 83.9.
Consider “PB[PGK-neo] donor transposon (PBL/PBR termini)”, for which the activity (mouse W4/129S6 ES cells, Act-PBase helper, scale: fold drug-resistant clones vs donor alone) is 50.
With “PB[SV40-neo] donor transposon (PBL/PBR termini)”, the activity (human 293 cells, CMV-PBase helper, scale: fold G418-resistant clones vs donor alone) came out at 10.

The record behind these values is US20100154070.
